The text below walks through data of patent US20210340217A1, “NOVEL PEPTIDES AND COMBINATION OF PEPTIDES FOR USE IN IMMUNOTHERAPY AGAINST OVARIAN CANCER AND OTHER CANCERS” (Immatics Biotechnologies GmbH, priority 2017, published 2021).

The experiment concerns the target HLA-B*07:02 (Homo sapiens, UniProt P01889). Kind of experiment: MHC binding assay (UV-ligand exchange, beta2m ELISA). The settings on record: peptide exchange yield. From the text: Candidate peptides for T cell based therapies according to the present invention were further tested for their MHC binding capacity (affinity). The individual peptide-MHC complexes were produced by UV-ligand exchange, where a UV-sensitive peptide is cleaved upon UV-irradiation, and exchanged with the peptide of interest as analyzed. Only peptide candidates that can effectively bind and stabilize the peptide-receptive MHC molecules prevent dissociation of the MHC complexes. To determine the yield of the exchange reaction, an ELISA was performed based on the detection of the light chain (β2m) of stabilized MHC complexes. The assay was performed as generally described in Rodenko et al. (Rodenko et al., 2006).
96 well MAXISorp plates (NUNC) were coated over night with 2 ug/ml streptavidin in PBS at room temperature, washed 4× and blocked for 1 h at 37° C. in 2% BSA containing blocking buffer. Refolded HLA-A*02:01/MLA-001 monomers served as standards, covering the range of 15-500 ng/ml. Peptide-MHC monomers of the UV-exchange reaction were diluted 100-fold in blocking buffer. Samples were incubated for 1 h at 37° C., washed four times, incubated with 2 ug/ml HRP conjugated anti-β2m for 1h at 37° C., washed again and detected with TMB solution that is stopped with […]. Absorption was measured at 450 nm. Candidate peptides that show a high exchange yield (preferably higher than 50%, most preferred higher than 75%) are generally preferred for a generation and production of antibodies or fragments thereof, and/or T cell receptors or fragments thereof, as they show sufficient avidity to the MHC molecules and prevent dissociation of the MHC complexes.
As to “368 (VPTPVFPTM; listed as Homo sapiens) [compound 368]”, the Peptide exchange result is ““++” (>20% = ++)”. As to “374 (NPIGDTGVKF; listed as Homo sapiens) [compound 374]”, the Peptide exchange entry is ““+++” (>50 = +++)”. Regarding “131 (APTEDLKAL; listed as Homo sapiens) [compound 131]”, the Peptide exchange entry was ““+++” (>50 = +++)”.

In the case of “38 (SPHPVTALLTL; listed as Homo sapiens) [compound 38]”, the Peptide exchange entry was ““+++” (>50 = +++)”. For “365 (TPLATTQRFTY; listed as Homo sapiens) [compound 365]” the value was ““++” (>20% = ++)”. For “121 (VPNQSSESL; listed as Homo sapiens) [compound 121]” the value was ““+++” (>50 = +++)”. For “356 (SPNEFYFTV; listed as Homo sapiens) [compound 356]” the value was ““+++” (>50 = +++)”; for “313 (KVKSDRSVF; listed as Homo sapiens) [compound 313]”, ““+” (>10% = +)”; for “354 (SPLPVTSLL; listed as Homo sapiens) [compound 354]”, ““+++” (>50 = +++)”. For “302 (RVEEVRALL; listed as Homo sapiens) [compound 302]”, the Peptide exchange entry was ““+++” (>50 = +++)”.

For “337 (HPVETSSAL; listed as Homo sapiens) [compound 337]”, the Peptide exchange entry is reported as ““+++” (>50 = +++)”.

“307 (LPYGPGSEAAAF; listed as Homo sapiens) [compound 307]”: the Peptide exchange entry was ““+++” (>50 = +++)”. For “389 (SPGAQRTFFQL; listed as Homo sapiens) [compound 389]” the value was ““+++” (>50 = +++)”. The value for “137 (SPGATSRGTL; listed as Homo sapiens) [compound 137]” was ““+++” (>50 = +++)”. The value for “132 (IPGPAQSTI; listed as Homo sapiens) [compound 132]” was ““++” (>20% = ++)”; that for “39 (RPAPFEVVF; listed as Homo sapiens) [compound 39]” was ““+++” (>50 = +++)”. Consider “339 (LPAGTTGSLVF; listed as Homo sapiens) [compound 339]”, for which the Peptide exchange result is given as ““+++” (>50 = +++)”. Consider “304 (LPRPGAVL; listed as Homo sapiens) [compound 304]”, for which the Peptide exchange result is ““+++” (>50 = +++)”. The value for “314 (VPDQPHPEI; listed as Homo sapiens) [compound 314]” was ““+++” (>50 = +++)”; that for “118 (SPASRSISL; listed as Homo sapiens) [compound 118]” was ““+++” (>50 = +++)”; that for “321 (SPMDTFLLI; listed as Homo sapiens) [compound 321]” was ““++” (>20% = ++)”. With “144 (SPSPVSSTL; listed as Homo sapiens) [compound 144]”, the Peptide exchange result is given as ““+++” (>50 = +++)”. For “147 (APRWFPQPTVV; listed as Homo sapiens) [compound 147]” the value was ““+++” (>50 = +++)”; for “367 (TPSVVTEGF; listed as Homo sapiens) [compound 367]”, ““++” (>20% = ++)”; for “306 (APVIFSHSA; listed as Homo sapiens) [compound 306]”, ““++” (>20% = ++)”.

As to “125 (VPVYILLDEM; listed as Homo sapiens) [compound 125]”, the Peptide exchange entry is recorded as ““++” (>20% = ++)”. Regarding “370 (PGGTRQSL; listed as Homo sapiens) [compound 370]”, the Peptide exchange entry is listed as ““+” (>10% = +)”. Regarding “344 (LPTQTTSSL; listed as Homo sapiens) [compound 344]”, the Peptide exchange result was ““+++” (>50 = +++)”. For “299 (HPGSSALHY; listed as Homo sapiens) [compound 299]” the value was ““++” (>20% = ++)”; for “322 (SPDPSKHLL; listed as Homo sapiens) [compound 322]”, ““++” (>20% = ++)”.

For the substance “363 (TAKTPDATF; listed as Homo sapiens) [compound 363]”, the Peptide exchange entry is ““++” (>20% = ++)”. For “34 (LPRGPLASLL; listed as Homo sapiens) [compound 34]”, the Peptide exchange result is ““+++” (>50 = +++)”. On to “377 (RPRSPAGQVAAA; listed as Homo sapiens) [compound 377]”, for which the Peptide exchange result is recorded as ““+++” (>50 = +++)”.

In the case of “332 (FPHSEMTTL; listed as Homo sapiens) [compound 332]”, the Peptide exchange result is recorded as ““+++” (>50 = +++)”. Turning to “392 (KPIESTLVA; listed as Homo sapiens) [compound 392]”, the Peptide exchange entry is listed as ““+++” (>50 = +++)”. With “383 (TPTKETVSL; listed as Homo sapiens) [compound 383]”, the Peptide exchange entry is reported as ““+++” (>50 = +++)”. Regarding “295 (YPLRGSSIFGL; listed as Homo sapiens) [compound 295]”, the Peptide exchange result was ““+++” (>50 = +++)”.

Regarding “331 (FPHPEMTTSM; listed as Homo sapiens) [compound 331]”, the Peptide exchange result is on record as ““+++” (>50 = +++)”. “309 (FPQSQYPQY; listed as Homo sapiens) [compound 309]”: the Peptide exchange entry is on record as ““++++” (>75% = ++++)”. For the substance “359 (SPSTIKLTM; listed as Homo sapiens) [compound 359]”, the Peptide exchange result is on record as ““+++” (>50 = +++)”. The value for “352 (SPAETSTNM; listed as Homo sapiens) [compound 352]” was ““+++” (>50 = +++)”; that for “379 (GPFPLVYVL; listed as Homo sapiens) [compound 379]” was ““+++” (>50 = +++)”. For the substance “139 (SPQSMSNTL; listed as Homo sapiens) [compound 139]”, the Peptide exchange result is on record as ““+++” (>50 = +++)”. For “142 (TPGLRETSI; listed as Homo sapiens) [compound 142]”, the Peptide exchange result is ““++” (>20% = ++)”. As for “145 (SPSSPMSTF; listed as Homo sapiens) [compound 145]”, the Peptide exchange result is ““++” (>20% = ++)”.

With “358 (SPSPVTSTL; listed as Homo sapiens) [compound 358]”, the Peptide exchange result was ““+++” (>50 = +++)”.

Regarding “41 (RVRSRISNL; listed as Homo sapiens) [compound 41]”, the Peptide exchange result is given as ““+++” (>50 = +++)”.

As for “119 (APLPRPGAVL; listed as Homo sapiens) [compound 119]”, the Peptide exchange result was ““+++” (>50 = +++)”. As to “382 (SPMHDRWTF; listed as Homo sapiens) [compound 382]”, the Peptide exchange result is reported as ““+++” (>50 = +++)”. Take “148 (KPYGGSGPL; listed as Homo sapiens) [compound 148]”: the Peptide exchange result is on record as ““+++” (>50 = +++)”. Consider “391 (APSTPRITTF; listed as Homo sapiens) [compound 391]”, for which the Peptide exchange entry is on record as ““+++” (>50 = +++)”. Take “315 (SPRENFPDTL; listed as Homo sapiens) [compound 315]”: the Peptide exchange entry is on record as ““+++” (>50 = +++)”. The value for “364 (TPLATTQRF; listed as Homo sapiens) [compound 364]” was ““++” (>20% = ++)”. Consider “381 (LPEQTPLAF; listed as Homo sapiens) [compound 381]”, for which the Peptide exchange result was ““++” (>20% = ++)”. Regarding “376 (RPRSPAGQVA; listed as Homo sapiens) [compound 376]”, the Peptide exchange result was ““+++” (>50 = +++)”.

Consider “130 (FPRLVGPDF; listed as Homo sapiens) [compound 130]”, for which the Peptide exchange result is given as ““+++” (>50 = +++)”. On to “353 (SPAMTTPSL; listed as Homo sapiens) [compound 353]”, for which the Peptide exchange entry is listed as ““+++” (>50 = +++)”.

With “311 (RPLFYVVSL; listed as Homo sapiens) [compound 311]”, the Peptide exchange entry is ““++” (>20% = ++)”. The value for “357 (SPSPVPTTL; listed as Homo sapiens) [compound 357]” was ““+++” (>50 = +++)”; that for “298 (YPTEHVQF; listed as Homo sapiens) [compound 298]” was ““++” (>20% = ++)”.

Turning to “135 (RVRSTISSL; listed as Homo sapiens) [compound 135]”, the Peptide exchange result is ““+++” (>50 = +++)”. Regarding “134 (RPIVPGPLL; listed as Homo sapiens) [compound 134]”, the Peptide exchange entry is reported as ““+++” (>50 = +++)”. In the case of “385 (SPALHIGSV; listed as Homo sapiens) [compound 385]”, the Peptide exchange result was ““+++” (>50 = +++)”.

For the substance “329 (FPAMTESGGMIL; listed as Homo sapiens) [compound 329]”, the Peptide exchange result is reported as ““+++” (>50 = +++)”.

Take “324 (VPYRVVGL; listed as Homo sapiens) [compound 324]”: the Peptide exchange entry was ““++” (>20% = ++)”.

Regarding “296 (YPLRGSSI; listed as Homo sapiens) [compound 296]”, the Peptide exchange result is listed as ““++” (>20% = ++)”.
